Patent US20190375795A1 (CGTX PEPTIDE DEVELOPMENT, published 2019)

What was measured:
[1] = biological target: human Kv1.3 (hKv1.3) channel (human, UniProt P22001 1-575); test: cell-based or functional assay
Kv1.5 = biological target: T1, Kv1.5 (UniProt P22460 1-613); test: planar patch clamp (Port-A-Patch), channel expressed in cells
T1 construct: whole, on cells
T1 sequence (P22460 whole entry): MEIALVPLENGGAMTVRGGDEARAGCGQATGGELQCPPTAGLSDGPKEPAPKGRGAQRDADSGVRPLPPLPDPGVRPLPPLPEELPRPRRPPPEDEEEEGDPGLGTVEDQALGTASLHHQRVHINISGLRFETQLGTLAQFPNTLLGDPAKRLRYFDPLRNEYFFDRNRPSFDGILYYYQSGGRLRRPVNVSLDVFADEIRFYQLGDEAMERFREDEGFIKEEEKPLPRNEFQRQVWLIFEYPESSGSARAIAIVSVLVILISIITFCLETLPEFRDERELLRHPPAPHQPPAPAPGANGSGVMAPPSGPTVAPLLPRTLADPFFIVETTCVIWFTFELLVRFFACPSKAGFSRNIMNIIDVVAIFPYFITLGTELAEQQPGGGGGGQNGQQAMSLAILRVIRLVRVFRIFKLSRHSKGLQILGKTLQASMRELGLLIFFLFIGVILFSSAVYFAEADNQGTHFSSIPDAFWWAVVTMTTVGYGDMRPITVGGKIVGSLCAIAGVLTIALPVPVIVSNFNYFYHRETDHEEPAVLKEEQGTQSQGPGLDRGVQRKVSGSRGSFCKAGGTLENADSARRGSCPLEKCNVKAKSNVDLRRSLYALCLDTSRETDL

human Kv1.3 (hKv1.3) channel, sequence (P22001 whole entry): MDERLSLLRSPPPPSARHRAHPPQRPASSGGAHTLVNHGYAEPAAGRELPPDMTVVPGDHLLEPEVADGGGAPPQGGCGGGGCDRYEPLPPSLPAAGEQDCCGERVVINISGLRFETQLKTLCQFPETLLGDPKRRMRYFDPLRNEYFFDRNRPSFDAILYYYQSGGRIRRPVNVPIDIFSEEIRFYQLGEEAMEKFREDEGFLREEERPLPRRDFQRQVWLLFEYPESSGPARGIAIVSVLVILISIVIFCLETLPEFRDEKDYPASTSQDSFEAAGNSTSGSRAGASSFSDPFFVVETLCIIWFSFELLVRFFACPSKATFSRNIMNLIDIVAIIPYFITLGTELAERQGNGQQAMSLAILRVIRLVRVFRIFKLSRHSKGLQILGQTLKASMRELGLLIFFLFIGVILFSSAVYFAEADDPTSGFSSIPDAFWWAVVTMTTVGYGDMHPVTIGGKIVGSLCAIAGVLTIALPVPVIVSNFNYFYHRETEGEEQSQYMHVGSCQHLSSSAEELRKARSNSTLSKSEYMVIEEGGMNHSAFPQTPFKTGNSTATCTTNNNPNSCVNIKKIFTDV

In the case of ASCRTPKDCADPCRKETGCPYGKCMNRKCKCNRC (also called toxin HsTx 1) [HsTx 1], the “selectivity for Kv1.3 vs. Kv1.1 (patch clamp IC50s)” value [1] is reported as ~450 fold and the binding result (Kv1.5) is reported as “no binding”.
